# In US11466260B2, “Thermostable haloarchaeal inorganic pyrophosphatase” (UNIVERSITY OF FLORIDA RESEARCH FOUNDATION, INCORPORATED, priority 2015, dated 2022):
# Entries after “also recorded” stand apart in the source; their conditions may differ. Where two headings read alike, the source gives them in different places.
# B1: HvPPA: Class A type inorganic pyrophosphatase from Haloferax volcanii, amino acid sequence of SEQ ID NO: 2 (protein, listed as Haloferax volcanii)
# chain: MVNLWEDMETGPNAPDEIYAVVECLKGERNKYEYDKDIPGVVLDRVLHSNVHYPSDYGFIPQTYYDDEDPFDVLVLVEDQTFPGCVIEARPVALMKMDDDGEQDDKVIAVPVEDPRYDHIEDLDDIPQQTLDEIDEFFATYKNLEAGKEVETLGWEDKQAAKDAIEHAMDLYEENFA
# How the values were obtained:
# [1] = assay type: physicochemical, Haloferax volcanii
# Experimental: (§1) FIGS. 6A-6D. Effect of salt, solvent and temperature on Haloferax volcanii inorganic phyrophosphatase (HvPPA). A) HvPPA thermostability. HvPPA was incubated at 42° C. and 65° C. as indicated with enzyme at 0.093 mg/ml of buffer (20 mM Tris-Cl pH 8, 2.5 mM MgCl2 and 3 M NaCl). HvPPA was diluted to 0.28 μg per 100 μl buffer (with MgCl2 increased to 10 mM) and assayed by addition of 1 mM PPi substrate (10 min, RT). Activity is % relative to samples incubated on ice. B) HvPPA stability in 50% (v/v) solvent. HvPPA was incubated for 2 h (on ice) at 0.47 mg/ml buffer (20 mM Tris-Cl pH 8 and 2 M NaCl) supplemented with solvent as indicated. HvPPA was diluted to 2.4 μg per 100 μl buffer (20 mM Tris-Cl pH 8, 2.5 mM MgCl2 and 2 M NaCl) and assayed by addition of 50 μM PPi substrate (10 min, RT). Activity is % relative to samples incubated with no solvent. C) HvPPA activity in 25% (v/v) solvent. Reactions were 500 μl with 2.8 μg HvPPA, 1.5 M NaCl, 1.5 mM PPi, 10 mM MgCl2. Reaction occurred at 10 minutes at RT. D) HvPPA stability in salt. HvPPA was incubated for 2 h (on ice) at 0.3 mg per ml of buffer (20 mM Tris-Cl pH 8) supplemented with NaCl at the concentrations indicated. HvPPA was diluted to 0.87 μg per 100 μl reaction buffer as in FIG. 6B. Activity is % relative to samples incubated in buffer supplemented with 3M NaCl.
# [2] = PPi assay: HvPPA-mediated hydrolysis of PPi to Pi (malachite green); assay type: biochemical, Haloferax volcanii; settings: 25° C.
# [3] = as above; assay type: biochemical, Haloferax volcanii; settings: for Temp., optimum: 20 mM Tris-Cl pH 8, 3 M NaCl; for Cation-dependence: EDTA-treated enzyme, 20 mM Tris-Cl pH 8, 2 M NaCl
# Experimental: FIGS. 4A-4D. Effect of pH, temperature, salt and divalent cations on Haloferax volcanii inorganic phyrophosphatase (HvPPA) activity. A-C) HvPPA was equilibrated for 10 min at the pH, temperature, and NaCl concentrations indicated prior to the addition of PPi substrate (100 μM). MgCl2 (10 mM) was included in the activity assays. For pH optimum, assays were supplemented with 3 M NaCl and included 20 mM buffers of sodium acetate at pH 4-5, MES at pH 6-6.5, Tris-Cl at pH 7-9 and CAPS at pH 10. For temperature optimum assays, reactions were in 20 mM Tris-Cl pH 8 supplemented with 3 M NaCl. For salt optimum, HvPPA was diluted from 20 mM Tris-Cl pH 8 containing 3 m NaCl into the same buffer with NaCl concentrations as indicated. D) To test the influence of cations, HvPPA was dialyzed sequentially against 500 ml of buffer (20 mM Tris-Cl pH 8, 2 M NaCl and 1 μM EDTA) (4 h at 4° C.) and the same buffer with EDTA omitted (4 h at 4° C.). Reactions for panel D contained HvPPA (0.93 μg), 20 mM Tris-Cl pH 8, 2 M NaCl and divalent metal at the concentration indicated. Metals used were: CaCl2.2H2O, ZnCl2, CoCl2.6H2O, MnCl2.4H2O, NiCl2.6H2O and MgCl2.6H2O. Reactions were monitored for 10 min at RT unless otherwise indicated.
# as §1
# PPA activity monitored in Tris-salt buffer at 37° C. and pH 8.5 with 0.1 mM PPi for 10 min. U, units defined as μmol product/min. SD, standard deviation of three experiments.
# HvPPA-mediated hydrolysis of PPi to Pi was determined spectrophotometrically. Reagents were in nanopure water (Barnstead/Thermolyne Nanopure lab water system). Sodium pyrophosphate tetrabasic decahydrate (Sigma Aldrich) was used as a substrate. For kinetic measurements, reaction mixtures (500 μl total) contained 0.5-1 μg HvPPA and 1 mM PPi in high-salt buffer (3 M NaCl and 20 mM Tris-HCl, pH 8.5). Reactions were incubated at 42° C. for 1-3 min. Orthophosphate levels were determined by malachite green assay. Briefly, 2.5 ml of 14% (w/v) (NH4)2MoO4 and 0.2 ml of 11% (v/v) TWEEN 20 ® (Polyoxyethylene sorbitan monolaurate) were added into a 10-ml color reagent I (containing 1.67 ml conc. sulfuric acid, 8.33 ml nanopure H2O, and 12.22 mg malachite green). In triplicate, 50 μl of the color reagent was mixed with 200 μl of the reaction mixture and incubated at room temperature for 10 min. The formation of (MG^+)(H2PMo12O40) (where MG^+ represents ionized malachite green) was monitored at A630. A less sensitive malachite green assay was also used in which reaction aliquots (50 μl) were mixed with 250 μl color reagent II and 10 μl 1.5% (v/v) TWEEN 20 ® (Polyoxyethylene sorbitan monolaurate) in triplicate; product formation was immediately monitored at A650. […]
molecule,measurement,setting,value
B1,stability when stored in salt,[1],more stable
same,activity remained,"[1]; after 2 h at 42° C., relative to samples on ice",82%
same,Thermal inactivation (half-life),"[1]; buffer, pH 8",2 h
same,Vmax,[2],53 U · mg^−1 (25° C.)
same,Hill coefficient(s) (Mg^2+),[2]; Mg^2+,2.62
same,Hill coefficient(s) (PPi),[2]; PPi,"1.4 (PPi, 25° C.)"
same,Substrate(s) hydrolyzed,[3],PPi
same,"hydrolysis of nucleoside triphosphate (ATP, TTP, GTP or CTP) or nucleoside diphosphate (ADP)",[3],did not hydrolyze detectable levels
same,kcat,[3],1050 s⁻¹
same,activity of restored EDTA-treated enzyme versus untreated control,[3]; 2.5 mM MgCl2,half the activity of the untreated control
same,"Temp., optimum",[3],42 °C
same,"Temp., optimum",[3]; listed as HvPPA hexamers,42 °C
same,effect of NaCl on relative activity,[3]; 0.025 to 3 M NaCl,"little, if any, effect; also recorded: fully active"
same,"optimal activity, basic pH","[3]; 3 M NaCl, 10 mM MgCl2, 100 μM PPi, RT",8-9 pH
same,activity in organic solvent compared to no solvent controls,[3]; 25% (v/v) DMSO or DMF,63-94%
same,activity in organic solvent compared to no solvent controls,[3]; 25% (v/v) methanol or ethanol,110-150%
same,"pH, optimum",[3]; 25° C.,pH 8.5 (25° C.)
same,Vmax,"[3]; 25° C., PPi substrate",53 U/mg
same,Vmax,[3]; 42° C.,465 U · mg^−1
same,Vmax,"[3]; 42° C., PPi substrate",465 U/mg
same,Cation-dependence,[3],partially restored by supplementation of the enzyme with Mn^2+ or Mg^2+ ions
same,Cation-dependence,[3]; listed as Haloferax volcanii,"Mg^2+, Mn^2+"
same,Mg^2+ concentration for optimal PPi hydrolyzing activity,[3]; Mg^2+ added to reaction buffer,20 to 40 mM
same,Hill coefficient(s) (Mg^2+),"[3]; Mg^2+, 25° C.","2.6 (Mg^2+, 25° C.)"
same,Hill coefficient(s) (PPi),"[3]; PPi, 42° C.","2.1 (PPi, 42° C.)"
same,effect of removal of divalent cations,[3]; dialysis against the metal chelator EDTA,inactivated
same,Km,"[3]; for Mg^2+, 25° C., listed as Haloferax volcanii, read-out: Km Mg^2+",13.4 mM
same,Km,"[3]; for Mg^2+, 25° C., read-out: Km Mg^2+",13 mM
same,Km,"[3]; for PPi, 25° C., read-out: Km PPi",0.26 mM
same,Km,"[3]; for PPi, 42° C., read-out: Km PPi",0.55 mM
